From a protein production outcome set (Wang et al. 2014)

Assay: label from the status in PepcDB records

Sequence	protein production
MDKEQRNIVVFNASKRELFTSSSGYKSLQKKLRAQWKIQSIKEELTLEKLQGVKLWITAGPREKFTAAELEVLKQYLDSGGALLVMIGEGGELKYDTNINFLLEEFGIMVNNDAVIRNVYYKYFHPKEALVSNGVLNREISRAAGKVVTGVIDEENTGNNSQALTFVYPYGATLNVMKPAVAILSTGSVCFPLNRPVLAFHHSKNAGKLAVLGSCHMFSDQYLDKEENSRIMDVVFQWLTTDSIHLNQIDAEDPEITDYMMLPDTGSLSERLRVCLQEGDENPRDFTSLFDMSLLKLHTNTLPSVLDAYKQLNVKHEALQLITPQFETPLPPLQPAVFQPAFRDLPPPMLDLFDLDETFSSEKVRLAQLSNKCTDDDLEFYVRKCGDILGVTGNLDKDKRDAKHILEHVFFQVVEFKKLNEEHDVDTAEARFSMY	not failed
MDKHHSKKAILKLTLITTSILLMHSNQVNAEEQELKNQEQSPVIANVAQQPSPSVTTNTVEKTSVTAASASNTAKEMGDTSVKNDKTEDELLEELSKNLDTSNLGADLEEEYPSKPETTNNKESNVVTNASTAIAQKVPSAYEEVKPESKSSLAVLDTSKITKLQAITQRGKGNVVAIIDTGFDINHDIFRLDSPKDDKHSFKTKTEFEELKAKHNITYGKWVNDKIVFAHNYANNTETVADIAAAMKDGYGSEAKNISHGTHVAGIFVGNSKRPAINGLLLEGAAPNAQVLLMRIPDKIDSDKFGEAYAKAITDAVNLGAKTINMSIGKTADSLIALNDKVKLALKLASEKGVAVVVAAGNEGAFGMDYSKPLSTNPDYGTVNSPAISEDTLSVASYESLKTISEVVETTIEGKLVKLPIVTSKPFDKGKAYDVVYANYGAKKDFEGKDFKGKIALIERGGGLDFMTKITHATNAGVVGIVIFNDQEKRGNFLIPYRELPVGIISKVDGERIKNTSSQLTFNQSFEVVDSQGGNRMLEQSSWGVTAEGAIKPDVTASGFEIYSSTYNNQYQTMSGTSMASPHVAGLMTMLQSHLAEKYKGMNLDSKKLLELSKNILMSSATALYSEEDKAFYSPRQQGAGVVDAEKAIQAQYYITGNDGKAKINLKRMGDKFDITVTIHKLVEGVKELYYQANVATEQVNKGKFALKPQALLDTNWQKVILRDKETQVRFTIDASQFSQKLKEQMANGYFLEGFVRFKEAKDSNQELMSIPFVGFNGDFANLQALETPIYKTLSKGSFYYKPNDTTHKDQLEYNESAPFESNNYTALLTQSASWGYVDYVKNGGELELAPESPKRIILGTFENKVEDKTIHLLERDAANNPYFAISPNKDGNRDEITPQATFLRNVKDISAQVLDQNGNVIWQSKVLPSYRKNFHNNPKQSDGHYRMDALQWSGLDKDGKVVADGFYTYRLRYTPVAEGANSQESDFKVQVSTKSPNLPSRAQFDETNRTLSLAMPKESSYVPTYRLQLVLSHVVKDEEYGDETSYHYFHIDQEGKVTLPKTVKIGESEVAVDPKALTLVVEDKAGNFATVKLSDLLNKAVVSEKENAIVISNSFKYFDNLKKEPMFISKKEKVVNKNLEEIILVKPQTTVTTQSLSKEITKSGNEKVLTSTNNNSSRVAKIISPKHNGDSVNHTLPSTSDRATNGLFVGTLALLSSLLLYLKPKKTKNNSK	failed
MDKIRSLRFFIATLEGGSFAAAAKAYGTDPSTVSKAIHRLESDLGIQLFQRSTRQIRLTEAVRRYANTARFVLDELAACEDSLKSHNDALSGLLKINVPVSYGRLYIRPLLKEFCRRYPSITIDIHYDDAYVDIIEQGIDVSIRSGVVQDSQLIVRQLSPIDFIICGSQDYLTRHGVPSGPDAFNDHSWVRFRFKQTGKLLPIRMPEPDGTSEYNPERNFIVNDGESMAELCAEGLGLTQIPHFIARDWLKVGRLVPIFPSMRQAGNGVYLLYANREYVPARVRVFIDFITQAIQDMDETPFHTWAETLPIYQPNQGD	failed
MDKKPSILIFIVAYNAESTIENVLMRIPADLLDDFDAEVLVIDDQSSDDTVLRCAETIQSGKIRFKTNVLVNPENQGYGGNQKVGYQYAIEHDFDCVALLHGDGQYAPEYLRDLITPVTKGEAEAVFGSRMMTPFGALKGGMPAYKFVGNKILTLFQNIMLKTSLSEFHSGYRAYSVKALKQIPFHLNTPDFHFDTEIIIQLILWGFRIAERPIPTYYGDEICYVNGLKYALDVVITTTKARMQRLGLFHECKYEVIHPHNSNGYPEAKLSIKSPSGNRILEHHHHHH	failed
MDKLDAMQVYVAVVDAHSFARAAEVLGQPRSTVSRVVKELEAWLGAQLLQRTTRKLSVTAEGRRYYEECKRLLAEMAAMEASFPGRSAQPAGRFKVGMPQSLARHCILPRIGEFLQQYPDLELILCSSDNVEDIIQEGFDCVIRTGRIEDSTTLVARPLARYRWMVLASPAWLAAHGRPQSIDELHQHRAVGYLNHRTGRTIDWLFSLDEGDCAIRMRETLVVDDTDAYIQAGIQGLGLIRVASYLAQPYLQSGALVACLEQAASDLPLSLVYPQNRYLPPAVRAFYDWSRRVLQPPHSEA	failed
MDKNETRATIIRIGTDLISRQGFNATGIDAVLKEAGVPKGSFYYYFRSKEEFGLAVIDHFAERYDQRLDTFLNDEEVTPLNRIRNYLESALARLEQNQCSKGCLIGNLGQELADQHERFRGRLDEIFRSWKDRFAACLREAQRGGELAPELDAGVAAGFILSGLEGAILRTKVMKSPQPLRDFIEILFASVLRRQA	not failed
MDKNIKNKAEELIKDLIQKIDNNPYDAQAYYNLGVALNDAHSAEQAEELFKKALNIFANSKEKSSLMHYGLGNVYYTNSIYDKAIVEFKKVQSEKLKQDSMLMMAQAYYAQENYPQAMMYALTVSENTKHNVDAISLLASCFMATGDLTNARKYYLKALEYDKDNVEVLFQLGVIELSLSGEAGKYFDRVKNLDNEYYKKMQQRLADVQRFLMTQKKGKSDE	failed
MDKNNLEDLTGKKILRNGFGGLRLEYGTIFLDVGLFTYIVLILSIFFFLVERWFLGALTFVLHVPLLLLGIWCGER	failed
MDKPVVRDAALLIFRAVLGVIFVAHGWEKLFISGVTKTTGQFSAWGVPQPKLSVWITSISELLGGAFLVVGLLTTFVAGALALLIAAAIYFVHLSSGFFTVENGIEFPLLIIVSLLVIVVFGSGRASVDGVLTRG	failed
MDKQKEQLSIEVARLYYQSDLGQQEIATRLGVSRPTVSRLLQNAKLKGYVKIEVQDPFSNLTELANALKEKYQLKNVTVAFSQTNDYSEISKQISQSAAEYLEEIIHDDDILGVSWGTTMYKIAQKLSPQKAEIKVVQLKGGVSHSDVNTYAAETLALFGAAYDTAPVSLPLPVVLDNPLAKQMVEADRHIKNIIELGKKANIAIFTVGTVREEALLFRLGYFSDEEKIRLKEKAVGDICSRFFTINGEIADEKMNERTIGIDLQDLKQKETAILVAGGERKIKAIHGALRGGYANHFITDQYTAKQLLEQNFSN	failed
MDKQQRGIQVIRIWLGVTMLIHGVMKVTSLEDTLAFFASIGLPSLFVYGVAAIELIGGLFMIIGFLIPLVSVGFIAVLVGAIFSFGLASGFSGYEYELFLAITSLAILVSYADKKYLTLKLYF	failed
MDKYPFLREAGSSFKDRDVTKMSDLIATWDGQDIKGPALIGVPLSKSSISHSGASFAPGTIRQALKHSSAYSAELGEHVVSELLYDLGDIDIHVTDIVKSHHHIFQTMHALLSDHPDWVPLILGGDNSISYSTIKAIAQTKGTTAVIQFDAHHDVRNTEDGGPTNGTPFRRLLDEEIIEGQHLIQLGIREFSNSQAYEAYAKKHNVNIHTMDMIREKGLIPTIKEILPVVQDKTDFIFISVDMDVLDQSHAPGCPAIGPGGLYTDELLEAVKYIAQQPNVAGIEIVEVDPTLDFRDMTSRAAAHVLLHALKGMKLSPFK	not failed
MDLDVYVSAHRAEWDRLDDLLRRRRRLTGAEADELVALYQRTATHLSVIQSSAPDPQLTGRLSQLVARARSAVTGTRRASWRDVTRFLAYGFPAAVYRARHWWVPTALLSTVTAVLLGWWIGTHPEVQSSIAAPSELRALTRPGGEYETYYSSHPAASFAAQVWTNNAQAAAMCLVLGIFLGLPVLWILFQNMLNLGVGLGLMSSAGRLDTFLGLVLPHGLLELTAVFVAAGTGLRLGWTLIDPGPRSRRTALAEEGRAALGMAVGLALVLFVSGAIEGFVTPSGLPTWARIGIGIAAELAFLTYVYVLGGRATRAGDTGDIEAAERSATVPTAA	failed
